Laboratory results from patent US20200165334A1 (FRAUNHOFER GESELLSCHAFT ZUR F RDERUNG DER ANGEWANDTEN …, published 2020).

T1: murine IL-38 (mouse, UniProt Q8R459 1-152, limits assumed, C-terminally-biotinylated form)
T1 construct: Bacterially expressed in a C-terminally-biotinylated form and used as the antigen for phage selection; also called mouse IL-38; IL1F10
T1 sequence (looked up): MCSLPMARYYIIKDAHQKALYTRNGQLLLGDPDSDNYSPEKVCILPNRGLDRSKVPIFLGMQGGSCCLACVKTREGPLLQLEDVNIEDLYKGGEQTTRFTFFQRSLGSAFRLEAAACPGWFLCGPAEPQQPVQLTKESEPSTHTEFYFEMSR


Target: T1, murine IL-38
Experiment: biolayer interferometry, fitted sensorgrams (association to about 600 s, dissociation to 1800 s); concentrations of the traces not given

| Kd [nM] | Binder |
| --- | --- |
| 69 | Fab H06 (Fab, V domains shown, the constant domains of the Fab are not) VH: EVQLVESGGGLVQPGGSLRLSCAASGFSLSYSYIHWVRQAPGKGLEWVASISPSYSYTSYADSVKGRFTISADTSKNTAYLQMNSLRAEDTAVYYCARAPVPHVWPYSGFDYWGQGTLVTVSS VL: DIQMTQSPSSLSASVGDRVTITCRASQSVSSAVAWYQQKPGKAPKLLIYSASSLYSGVPSRFSGSRSGTDFTLTISSLQPEDFATYYCQQAYWSPITFGQGTKVEIK |
| 6.7 | Fab E04 (Fab, V domains shown, the constant domains of the Fab are not) VH: EVQLVESGGGLVQPGGSLRLSCAASGFSFSSSSIHWVRQAPGKGLEWVASISPYYSYTSYADSVKGRFTISADTSKNTAYLQMNSLRAEDTAVYYCARTVRGSKKPYFSGWAMDYWGQGTLVTVSS VL: DIQMTQSPSSLSASVGDRVTITCRASQSYYSYVAWYQQKPGKAPKLLIYSASSLYSGVPSRFSGSRSGTDFTLTISSLQPEDFATYYCQQVFAPITFGQGTKVEIK |
